Results on one substance are retold here after doi:10.1101/2021.06.29.450403.

The target in this assay is recombinant rAQP4ct protein (complete cytosolic C-terminal domain of human AQP4, residues 254-323) (human) (UniProt P55087). Put plainly: ITC. For orientation: ITC needs no label: the signal is the heat of the interaction.

As a reminder, the stoichiometry N is the number of molecules, sites or subunits per partner or assembly. Take “Chicken calmodulin (CaM) (from UniProt P62149 1-149) (natural protein)”: the stoichiometry N came to 1.
